A word on the Kd: it is the concentration at which binding is half-saturated. A low value points to a tighter complex.

B1: SEQ ID NO: PE-4 (TNFR1 binder) peptide (peptide)
peptide: A[dY]IW[Met(O2)]S[Met(O2)][NMePhe(3-Cl)]V[NMeF]DT[NMePhe(3-Cl)]SGSGSGS-{FlPu(urea)}
modifications: lactam N-11; reading uncertain
notes: Translated in ECL Translation Solution T, cyclized and desulfurized; not isolated; also called translation product of template DNA DME-4
B2: SEQ ID NO: PE-5 (TNFR1 binder) peptide (peptide)
peptide: AP[Sar]IIVS[NMeS][Phg][Phg]D[NMeAla(4-thiazolyl)]TSGSGSGS-{FlPu(urea)}
modifications: lactam N-11; reading uncertain
notes: Translated in ECL Translation Solution T, cyclized and desulfurized; not isolated; also called translation product of template DNA DME-5
B3: SEQ ID NO: PE-6 (TNFR1 binder) peptide (peptide)
peptide: AP[Sar]VITV[NMeS][Phg]SD[NMeA][NMePhe(3-Cl)]SGSGSGS-{FlPu(urea)}
modifications: lactam N-11; reading uncertain
notes: Translated in ECL Translation Solution T, cyclized and desulfurized; not isolated; also called translation product of template DNA DME-6
B4: Compound SP854 (peptide)
peptide: APVI[NMeF][Met(O2)]P[NMePhe(3-Cl)]V[Met(O2)]DP[Sar]S-OH
modifications: lactam N-11
SMILES: CC[C@H](C)[C@@H]1NC(=O)[C@H](C(C)C)NC(=O)[C@@H]2CCCN2C(=O)[C@H](C)NC(=O)C[C@@H](C(=O)N2CCC[C@H]2C(=O)N(C)CC(=O)N[C@@H](CO)C(=O)O)NC(=O)[C@H](CCS(C)(=O)=O)NC(=O)[C@H](C(C)C)NC(=O)[C@H](Cc2cccc(Cl)c2)N(C)C(=O)[C@@H]2CCCN2C(=O)[C@H](CCS(C)(=O)=O)NC(=O)[C@H](Cc2ccccc2)N(C)C1=O
notes: Chemically synthesized, HPLC purified
B5: Compound SP856 (peptide)
peptide: [γEtAbu]IVW[NMePhe(3-Cl)][Met(O2)]P[NMePhe(3-Cl)][dY][Met(O2)]D[NMeAla(4-thiazolyl)][NMeA]S-OH
modifications: lactam N-11
SMILES: CC[C@H](C)[C@@H]1NC(=O)CCCN(CC)C(=O)C[C@@H](C(=O)N(C)[C@@H](Cc2cscn2)C(=O)N(C)[C@@H](C)C(=O)N[C@@H](CO)C(=O)O)NC(=O)[C@H](CCS(C)(=O)=O)NC(=O)[C@@H](Cc2ccc(O)cc2)NC(=O)[C@H](Cc2cccc(Cl)c2)N(C)C(=O)[C@@H]2CCCN2C(=O)[C@H](CCS(C)(=O)=O)NC(=O)[C@H](Cc2cccc(Cl)c2)N(C)C(=O)[C@H](Cc2c[nH]c3ccccc23)NC(=O)[C@H](C(C)C)NC1=O
notes: as for B4
B6: Compound SP855 (peptide)
peptide: AII[NMeAla(4-thiazolyl)]WP[NMePhe(3-Cl)][Met(O2)][dY][βAla]DP[NMePhe(3-Cl)]S-OH
modifications: lactam N-11
SMILES: CC[C@H](C)[C@@H]1NC(=O)[C@H](C)NC(=O)C[C@@H](C(=O)N2CCC[C@H]2C(=O)N(C)[C@@H](Cc2cccc(Cl)c2)C(=O)N[C@@H](CO)C(=O)O)NC(=O)CCNC(=O)[C@@H](Cc2ccc(O)cc2)NC(=O)[C@H](CCS(C)(=O)=O)NC(=O)[C@H](Cc2cccc(Cl)c2)N(C)C(=O)[C@@H]2CCCN2C(=O)[C@H](Cc2c[nH]c3ccccc23)NC(=O)[C@H](Cc2cscn2)N(C)C(=O)[C@H]([C@@H](C)CC)NC1=O
notes: as for B4
B7: Compound SP859 (peptide)
peptide: APVI[NMeF][Met(O2)]P[NMePhe(3-Cl)]V[Met(O2)]DP[Sar]S-{NH(CH2)2NMe2}
modifications: lactam N-11
notes: Made from Compound SP854 by amidation of the C-terminal carboxylic acid

Starred links: 1 amine or outer side, 2 acyl side, 3 side chain; linkers in the order of their positions; H or OH if unused. Positions of bridges follow the written chain, without caps; N, C: chain ends. Non-standard residues stand in square brackets, D forms with d. γEtAbu = 4-(ethylamino)butanoic acid, CCN(CCCC(=O)[*:2])[*:1]; NMeAla(4-thiazolyl) = CN[C@@H](Cc1cscn1)C(=O)O; NMePhe(3-Cl) = CN[C@@H](Cc1cccc(Cl)c1)C(=O)O; Met(O2) = CS(=O)(=O)CC[C@H](N)C(=O)O; NMeF = CN[C@@H](Cc1ccccc1)C(=O)O; FlPu(urea) = not defined here; Phg = N[C@H](C(=O)O)c1ccccc1; NMeS = CN[C@@H](CO)C(=O)O; NMeA = CN[C@@H](C)C(=O)O; βAla = NCCC(=O)O; Sar = CNCC(=O)O

The target of one experiment is T1, biotinylated Recombinant Human TNFR1/Fc Chimera (SinoBiological, Catalog Number 10872-H03H) (human, UniProt P19438 22-211, biotinylated with EZ-Link NHS-PEG4-Biotin (Thermo scientific 21329); sites not stated).
T1 construct: Bought Fc chimera; also called tumor necrosis factor receptor 1; Fc part of the bought chimera not given
T1 sequence (looked up): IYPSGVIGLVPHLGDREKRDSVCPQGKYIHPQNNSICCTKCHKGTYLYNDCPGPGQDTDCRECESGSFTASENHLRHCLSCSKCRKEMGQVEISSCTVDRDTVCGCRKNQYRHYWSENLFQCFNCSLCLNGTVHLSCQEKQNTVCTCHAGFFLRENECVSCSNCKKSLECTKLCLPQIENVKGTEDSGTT
Nature of the experiment: ECL immunoassay (MSD): biotinylated target on streptavidin plate, translated FlPu(urea)-labelled cyclic peptide (Translation Solution T), anti-fluorescein and SULFO-TAG anti-mouse antibody; no-template control 293. The protocol:
0.5 μl of a 200 mM EDTA solution (pH 8.0, Nacalai, 14362-24) and 0.5 μl of a 100 mM TCEP solution (pH 6.6) were added to 5 μL of the translation mixture, and the mixture was incubated at 37° C. for 120 minutes to cause cyclization reaction. 11 μL of desulfurization buffer (15 mM cysteine, 36 mM TCEP) was added to the cyclization product, and the mixture was incubated at 42° C. for 1 minutes, after which 4 μL of 1 M VA-044 (Wako, CAS No. 27776-21-2) was added and the mixture was allowed to stand at 42° C. for 1 hour.
Immunoassay was carried out using the above peptide solution for ECL assay. 500 nM biotinylated target protein was added at 10 μL per well to MSD Streptavidin MULTI-ARRAY 384-well plate (Meso Scale Discovery, L25SB-1), and reaction was conducted at room temperature for 1 hour with shaking at 500 rpm to immobilize the target protein. 2% skim milk PBS was added at 50 μL per well, and blocking was carried out by allowing to stand at room temperature for 2 hours. The reaction solution was removed and the plate was washed with PBS containing 0.05% Tween 20 (PBST) three times, after which 10 μL of the peptide solution for ECL assay was added and the plate was shaken at room temperature for 50 minutes at 500 rpm. The reaction solution was removed and the plate was washed with PBST three times, after which 10 μL of IgG Fraction Monoclonal Mouse Anti-Fluorescein (Jackson ImmunoResearch, 200-002-037) diluted to 0.5 μg/mL with 2% skim milk PBS was added, and reaction was conducted at room temperature for 50 minutes with shaking at 500 rpm. […] The reaction solution was removed and the plate was washed with PBST three times, after which 35 μl, of 2× Read Buffer T (Meso Scale Discovery, R92TC-3) was added and measurement was carried out using SECTOR Imager 2400 (Meso Scale Discovery).
As to B1, the ECL signal stood at 32000. For the molecule B2, the ECL signal was determined as 3760.

Take B3: the ECL signal was 3610.

The next experiment has as its target T2, biotinylated Interleukin-6 receptor (IL-6R) (human, UniProt P08887 20-344, limits assumed, biotinylated (method of BMC biotechnology, 2008, 8, 41 and Protein Science, 1999, 8, 921-929); site not stated).
T2 construct: also called human IL-6 receptor; hIL-6R
T2 sequence (looked up): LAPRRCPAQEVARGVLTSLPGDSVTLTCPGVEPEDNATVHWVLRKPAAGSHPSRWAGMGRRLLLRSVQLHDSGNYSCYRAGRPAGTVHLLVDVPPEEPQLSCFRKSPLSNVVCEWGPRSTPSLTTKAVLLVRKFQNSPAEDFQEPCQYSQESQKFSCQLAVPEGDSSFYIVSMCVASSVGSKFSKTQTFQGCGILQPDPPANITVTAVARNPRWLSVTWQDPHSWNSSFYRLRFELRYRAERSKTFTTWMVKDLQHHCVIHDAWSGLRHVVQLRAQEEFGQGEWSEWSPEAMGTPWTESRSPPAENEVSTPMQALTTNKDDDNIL
Nature of the experiment: SPR, Biacore T200, 20 C; biotinylated IL-6R captured on sensor chip CAP, peptide as analyte; KD=koff/kon from curve fitting. The protocol: An SPR experiment for analyzing the interaction between synthetic peptides and IL-6R was conducted using Biacore T200 (GE healthcare) at 20° C. Synthetic peptides were added to the immobilized IL-6R, and the interaction was evaluated.
CAP reagent was immobilized on a Biacore sensor chip, Series S sensor chip CAP (GE healthcare), according to the instructions, and biotinylated IL-6R was further immobilized.
The obtained sensorgrams were analyzed using T200 evaluation software (GE healthcare) or Scrubber2 (Biologic software). First, solvent correction for DMSO and double reference (correction by subtracting sensorgrams of flow cells where IL-6R was not immobilized and sensorgrams in the case where the buffer was added) were carried out. Second, binding rate constants (kₒₙ) and dissociation rate constants (koff) were calculated from curve fitting to the corrected sensorgrams, and KDs were determined by the relational expression KD=koff/kₒₙ.
(SPR reads the build-up and loss of mass on a sensor chip optically.)
Molecule B4 yielded a dissociation constant Kd of 1.8 µM.

B5 came in with a dissociation constant (Kd) of 13 µM. B6: the Kd came out at 5.3 µM.

In turn, B7 registered a Kd of 0.55 µM.

(Values after patent US20150080549A1 (Chugai, published 2015).)
